Values quoted from earlier work as cited in paper PMC9090500.
pKd: −log10 of the molar value.

Biological target: IL18 (Homo sapiens) (UniProt Q14116)
Sequence (Q14116 37-193): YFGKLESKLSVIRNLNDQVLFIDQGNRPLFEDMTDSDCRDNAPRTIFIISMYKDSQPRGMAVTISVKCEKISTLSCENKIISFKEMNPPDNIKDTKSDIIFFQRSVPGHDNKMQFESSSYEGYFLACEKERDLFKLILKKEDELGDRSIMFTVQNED

Sequence of IL18BP (O95998 31-194): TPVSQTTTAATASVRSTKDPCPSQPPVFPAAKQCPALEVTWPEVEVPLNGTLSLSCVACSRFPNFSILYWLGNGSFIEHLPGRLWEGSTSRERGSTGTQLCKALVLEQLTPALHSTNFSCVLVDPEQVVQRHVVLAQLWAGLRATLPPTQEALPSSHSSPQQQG

With IL18BP (from UniProt O95998) as the substance, how does the pKd read?
The pKd was 6.40.
